For the test, the target named is T1, MdfA, major facilitator superfamily (MFS) drug/H+ antiporter from Escherichia coli (Escherichia coli, UniProt P0AEY8).
T1 construct: MdfA, multidrug/H+ antiporter of E. coli; wild type; the final model of the complex holds residues Gln14-Lys400; One complex in the asymmetric unit; also called MFS-MDR transporter; source: purified
Put plainly: crystal structure; co-crystals of MdfA in complex with the Fab fragment grown in the lipidic cubic phase; 3.4 Å; space group P6(1)22, one complex in the asymmetric unit; data at 100 K. Particulars: both partners purified.

The values below come from publication PMC6167325, “Outward open conformation of a Major Facilitator Superfamily multidrug/H^+ antiporter provides insights into switching mechanism” (Nature Communications, 2018).

T1 sequence (P0AEY8 whole entry, the tested form may be a part): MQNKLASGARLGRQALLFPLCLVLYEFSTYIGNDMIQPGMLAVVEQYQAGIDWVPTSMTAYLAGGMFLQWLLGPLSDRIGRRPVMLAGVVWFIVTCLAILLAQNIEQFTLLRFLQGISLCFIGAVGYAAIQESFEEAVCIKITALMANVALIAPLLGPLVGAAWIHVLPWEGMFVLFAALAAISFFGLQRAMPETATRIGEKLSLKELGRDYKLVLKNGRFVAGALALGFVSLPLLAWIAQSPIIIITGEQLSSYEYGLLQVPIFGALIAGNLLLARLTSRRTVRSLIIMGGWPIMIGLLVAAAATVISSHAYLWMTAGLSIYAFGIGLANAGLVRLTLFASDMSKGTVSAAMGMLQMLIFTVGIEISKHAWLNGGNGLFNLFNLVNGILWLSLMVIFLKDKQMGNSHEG

B1: Fab YN1074 (Fab, V domains shown)
VH: EVQLKESGPGLVAPSQSLSITCTVSGFSFSIYGLHWVRQPPGKGLEWLGMIWGGGRTDYNSALKSRLSISKDNSKSQVFLKMKSLQTDDTAMYYCARNSGYGNLAYWGQGTLVTVSA
VL: DIVMTQSPSSLSASLGERVSLTCRASQDIGYSLNWLQQEPDGTIKRLIYATSNLDSGVPKRFSGSRSGSDYSLTISSLESEDFVDYYCLQYASSPYTFGGGTKLEIK
notes: the model holds residues Leu4-Pro216; the model holds residues Asp1-Arg211; also called Fab fragment
For B1, the binding result is given as “binds”.
